From paper PMC2613655 (Journal of molecular biology, 2008)

B1: YSY (other, yeast, UniProt P25491 1-105, looked up)
chain: MVKETKFYDILGVPVTATDVEIKKAYRKCALKYHPDKNPSEEAAEKFKEASAAYEILSDPEKRDIYDQFGEDGLSGAGGAGGFPGGGFGFGDDIFSQFFGAGGAQNEDAFNIFSQFFGGSSPFGGADDSGFSFSSYPSGGGAGMGGMPGGMGGMHGGMGGMPGGFRSASSSPTYPEEETVQVNLPVSLEDLFVGKKKSFKIGRKGPHGASEKTQIDIQLKPGWKAGTKITYKNQGDYNPQTGRRKTLQFVIQEKSHKSFKRDGDDLVYEAEIDLLTAIAGGEFALEHVSGDWLKVGIVPGEVIAPGMRKVIEGKGMPIPKYGGYGNLIIKFTIKFPENHFTSEENLKKLEEILPPRIVPAIPKKATVDECVLADFDPAKYNRTRASRGGANYDSDEEEQGGEGVQCASQ
B2: Ydj1 (natural protein, yeast, UniProt P25491 1-409, looked up)
chain: MVKETKFYDILGVPVTATDVEIKKAYRKCALKYHPDKNPSEEAAEKFKEASAAYEILSDPEKRDIYDQFGEDGLSGAGGAGGFPGGGFGFGDDIFSQFFGAGGAQRPRGPQRGKDIKHEISASLEELYKGRTAKLALNKQILCKECEGRGGKKGAVKKCTSCNGQGIKFVTRQMGPMIQRFQTECDVCHGTGDIIDPKDRCKSCNGKKVENERKILEVHVEPGMKDGQRIVFKGEADQAPDVIPGDVVFIVSERPHKSFKRDGDDLVYEAEIDLLTAIAGGEFALEHVSGDWLKVGIVPGEVIAPGMRKVIEGKGMPIPKYGGYGNLIIKFTIKFPENHFTSEENLKKLEEILPPRIVPAIPKKATVDECVLADFDPAKYNRTRASRGGANYDSDEEEQGGEGVQCASQ
B3: Sis1 (natural protein, yeast, UniProt P25294 1-352, looked up)
chain: MVKETKLYDLLGVSPSANEQELKKGYRKAALKYHPDKPTGDTEKFKEISEAFEILNDPQKREIYDQYGLEAARSGGPSFGPGGPGGAGGAGGFPGGAGGFSGGHAFSNEDAFNIFSQFFGGSSPFGGADDSGFSFSSYPSGGGAGMGGMPGGMGGMHGGMGGMPGGFRSASSSPTYPEEETVQVNLPVSLEDLFVGKKKSFKIGRKGPHGASEKTQIDIQLKPGWKAGTKITYKNQGDYNPQTGRRKTLQFVIQEKSHPNFKRDGDDLIYTLPLSFKESLLGFSKTIQTIDGRTLPLSRVQPVQPSQTSTYPGQGMPTPKNPSQRGNLIVKYKVDYPISLNDAQKRAIDENF
B4: SYS (other, yeast, UniProt P25294 1-121, looked up)
chain: MVKETKLYDLLGVSPSANEQELKKGYRKAALKYHPDKPTGDTEKFKEISEAFEILNDPQKREIYDQYGLEAARSGGPSFGPGGPGGAGGAGGFPGGAGGFSGGHAFSNEDAFNIFSQFFGGAGGAQRPRGPQRGKDIKHEISASLEELYKGRTAKLALNKQILCKECEGRGGKKGAVKKCTSCNGQGIKFVTRQMGPMIQRFQTECDVCHGTGDIIDPKDRCKSCNGKKVENERKILEVHVEPGMKDGQRIVFKGEADQAPDVIPGDVVFIVSERPHPNFKRDGDDLIYTLPLSFKESLLGFSKTIQTIDGRTLPLSRVQPVQPSQTSTYPGQGMPTPKNPSQRGNLIVKYKVDYPISLNDAQKRAIDENF

Target: the molecule itself
Assay: SAXS

Protein | stoichiometry N
B1 | 2
B2 | 2
B3 | 2
B4 | 2
